Tests used:
[1] = molecular target: citrullinated histone H3 (CitH3) peptide (human); assay: sandwich ELISA, Ab coated 1 ug/mL, CitH3 at 1000 pg/mL
[2] = molecular target: citrullinated histone H3 (CitH3) peptide (human); assay: sandwich ELISA, Ab coated 1 ug/mL, CitH3 at 50 pg/mL
[3] = molecular target: citrullinated histone H3 (CitH3) peptide (human); assay: sandwich ELISA, Ab coated 1 ug/mL, CitH3 at 0 pg/mL (blank)
[4] = molecular target: citrullinated histone H3 (CitH3) peptide (human); assay: sandwich ELISA, Ab coated 1 ug/mL, CitH3 at 20000 pg/mL

ELISA signal (raw data) [1]: 2910 | ELISA signal (raw data) [2]: 2950 | ELISA signal (raw data) [3]: 2780 | ELISA signal (raw data) [4]: 3700
B1: Y1128-VH1/VL1 (antibody, V domains shown)
VH: EVQLVQSGAEVKKPGATVKISCKASGFNIKDYYMHWMQQRPGKGLEWIGWIDPENGNTIYDPKFQGRVTITSDTSTDTAYLELSSLRSEDTAVYYCAPFGNYVWFAYWGQGTLVTVSS
VL: DVVMTQSPLSLPVTLGQPASISCRSSQSIVHSNGITYLEWFQQRPGQSPRLLIYKVSNRFSGVPDRFSGSGSGTDFTLKISRVEAEDVGVYYCFQGSHVPFTFGQGTKLEIKR
